Experimental findings from paper PMC5207133 are described below.

As usually defined, the stoichiometry N is the number of molecules, sites or subunits per partner or assembly.

Assay [1] addresses Ku70/80 heterodimer (human (endogenous in HeLa)) (UniProt P12956).
Assay [2] has as its target XRCC4-DNA ligase IV (X4L4) complex (human) (UniProt Q13426).

Sequence of aprataxin and polynucleotide kinase/phosphatase-like factor (APLF), GST tag removed (Q8IW19 whole entry): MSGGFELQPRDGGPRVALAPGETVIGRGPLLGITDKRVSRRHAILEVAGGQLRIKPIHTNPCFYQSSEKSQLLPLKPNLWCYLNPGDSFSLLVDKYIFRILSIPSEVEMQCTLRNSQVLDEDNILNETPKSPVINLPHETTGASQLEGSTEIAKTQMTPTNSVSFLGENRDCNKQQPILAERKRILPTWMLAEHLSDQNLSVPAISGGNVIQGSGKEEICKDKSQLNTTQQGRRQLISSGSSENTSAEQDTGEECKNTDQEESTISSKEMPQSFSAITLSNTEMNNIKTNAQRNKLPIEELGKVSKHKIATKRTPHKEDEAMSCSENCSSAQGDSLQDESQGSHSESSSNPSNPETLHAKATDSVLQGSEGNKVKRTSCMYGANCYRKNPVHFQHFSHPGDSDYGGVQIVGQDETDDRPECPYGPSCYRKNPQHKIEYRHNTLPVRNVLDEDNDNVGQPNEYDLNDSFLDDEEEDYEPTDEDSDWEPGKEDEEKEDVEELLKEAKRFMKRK
Sequence of XRCC4-DNA ligase IV (X4L4) complex (human) (Q13426 whole entry, chain 1 of 2): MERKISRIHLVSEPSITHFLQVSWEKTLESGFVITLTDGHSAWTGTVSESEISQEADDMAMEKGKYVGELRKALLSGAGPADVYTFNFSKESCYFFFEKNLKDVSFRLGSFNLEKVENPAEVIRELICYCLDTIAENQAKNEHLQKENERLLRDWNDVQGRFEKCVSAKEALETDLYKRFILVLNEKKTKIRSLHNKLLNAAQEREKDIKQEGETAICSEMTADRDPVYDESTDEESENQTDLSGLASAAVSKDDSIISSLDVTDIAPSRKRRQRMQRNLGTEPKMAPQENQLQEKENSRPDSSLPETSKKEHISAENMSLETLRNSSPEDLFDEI
Sequence of XRCC4-DNA ligase IV (X4L4) complex (human) (P49917 whole entry, chain 2 of 2, further chain): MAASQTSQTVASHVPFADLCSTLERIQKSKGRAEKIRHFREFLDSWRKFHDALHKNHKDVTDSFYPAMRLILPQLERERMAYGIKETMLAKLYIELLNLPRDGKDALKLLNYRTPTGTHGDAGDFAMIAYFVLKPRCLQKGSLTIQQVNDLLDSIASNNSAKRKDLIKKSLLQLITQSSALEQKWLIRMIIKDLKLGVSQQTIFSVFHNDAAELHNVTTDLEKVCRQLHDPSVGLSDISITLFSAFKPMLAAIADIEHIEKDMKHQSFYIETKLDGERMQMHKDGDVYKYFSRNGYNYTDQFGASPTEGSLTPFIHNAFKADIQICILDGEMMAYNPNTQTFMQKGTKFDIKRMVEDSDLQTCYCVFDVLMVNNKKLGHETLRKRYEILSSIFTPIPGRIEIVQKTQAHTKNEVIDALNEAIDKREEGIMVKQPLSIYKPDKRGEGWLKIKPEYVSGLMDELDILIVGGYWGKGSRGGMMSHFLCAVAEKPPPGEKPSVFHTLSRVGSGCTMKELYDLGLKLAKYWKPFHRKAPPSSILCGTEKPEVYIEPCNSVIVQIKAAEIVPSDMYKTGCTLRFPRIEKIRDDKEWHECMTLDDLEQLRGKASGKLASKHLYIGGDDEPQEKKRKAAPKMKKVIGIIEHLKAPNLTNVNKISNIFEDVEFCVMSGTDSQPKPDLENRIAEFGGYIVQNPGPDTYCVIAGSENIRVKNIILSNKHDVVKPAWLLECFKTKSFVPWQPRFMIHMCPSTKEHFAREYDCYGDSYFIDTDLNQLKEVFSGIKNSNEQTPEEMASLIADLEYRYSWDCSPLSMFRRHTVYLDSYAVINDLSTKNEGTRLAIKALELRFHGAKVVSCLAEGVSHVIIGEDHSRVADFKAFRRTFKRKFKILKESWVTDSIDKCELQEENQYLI
Sequence of Ku70/80 heterodimer (human (endogenous in HeLa)) (P12956 whole entry, chain 1 of 2): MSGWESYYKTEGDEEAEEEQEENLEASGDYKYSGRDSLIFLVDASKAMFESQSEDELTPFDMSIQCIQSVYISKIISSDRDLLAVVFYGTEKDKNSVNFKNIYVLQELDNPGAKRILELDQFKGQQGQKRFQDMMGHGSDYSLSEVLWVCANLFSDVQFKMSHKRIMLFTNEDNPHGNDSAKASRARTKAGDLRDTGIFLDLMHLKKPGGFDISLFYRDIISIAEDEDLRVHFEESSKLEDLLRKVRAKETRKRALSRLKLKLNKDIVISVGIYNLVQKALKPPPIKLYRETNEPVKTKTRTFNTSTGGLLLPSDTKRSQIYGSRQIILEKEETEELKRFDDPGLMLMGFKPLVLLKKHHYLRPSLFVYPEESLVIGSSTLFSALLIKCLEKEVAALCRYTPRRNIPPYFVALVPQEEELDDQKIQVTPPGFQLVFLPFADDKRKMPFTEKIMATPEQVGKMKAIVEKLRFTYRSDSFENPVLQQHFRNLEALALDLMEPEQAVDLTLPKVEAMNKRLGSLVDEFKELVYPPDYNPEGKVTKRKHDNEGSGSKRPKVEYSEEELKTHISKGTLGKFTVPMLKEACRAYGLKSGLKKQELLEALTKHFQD
Sequence of Ku70/80 heterodimer (human (endogenous in HeLa)) (P13010 whole entry, chain 2 of 2, further chain): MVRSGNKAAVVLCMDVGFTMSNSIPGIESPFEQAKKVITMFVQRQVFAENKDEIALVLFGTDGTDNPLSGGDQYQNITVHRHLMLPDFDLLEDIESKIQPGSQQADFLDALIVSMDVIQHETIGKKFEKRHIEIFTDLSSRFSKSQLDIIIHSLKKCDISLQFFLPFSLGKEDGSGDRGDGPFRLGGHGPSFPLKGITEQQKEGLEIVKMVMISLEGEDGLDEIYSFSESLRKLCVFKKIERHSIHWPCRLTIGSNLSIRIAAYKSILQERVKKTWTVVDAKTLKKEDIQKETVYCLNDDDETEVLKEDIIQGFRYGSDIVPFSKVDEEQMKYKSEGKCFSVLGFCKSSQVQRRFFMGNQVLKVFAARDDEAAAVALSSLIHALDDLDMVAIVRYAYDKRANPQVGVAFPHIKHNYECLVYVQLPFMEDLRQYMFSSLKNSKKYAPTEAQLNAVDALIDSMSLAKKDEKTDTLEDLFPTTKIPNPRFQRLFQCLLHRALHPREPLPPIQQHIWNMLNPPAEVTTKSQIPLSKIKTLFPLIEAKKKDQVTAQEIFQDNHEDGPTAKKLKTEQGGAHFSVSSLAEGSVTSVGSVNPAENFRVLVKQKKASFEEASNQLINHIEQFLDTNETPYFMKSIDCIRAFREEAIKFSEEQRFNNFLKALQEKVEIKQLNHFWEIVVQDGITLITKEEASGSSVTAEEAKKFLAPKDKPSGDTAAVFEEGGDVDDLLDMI

On to “aprataxin and polynucleotide kinase/phosphatase-like factor (APLF), GST tag removed (from UniProt Q8IW19 1-511) (natural protein)”, for which the stoichiometry N in assay [1] and in assay [2] was 1 each time.
